Test results published in publication PMC7824956, “Structural and Biochemical Characterization of a Cold-Active PMGL3 Esterase with Unusual Oligomeric Structure” (Biomolecules, 2021).
Where “and” joins values, the source holds several entries; their conditions need not be identical. Equal values may be shown once.

Tests used:
[1] = molecular target: cold-active esterase PMGL3, wild type (not stated (Siberian permafrost metagenomic DNA library)); assay: SEC; sample after storage for 3 months at 4 °C; Superdex 200 10/300 GL, 0.4 mL/min, 100 mM Tris-HCl pH 8.0, 150 mM NaCl
[2] = molecular target: cold-active esterase PMGL3, wild type (not stated (Siberian permafrost metagenomic DNA library)); assay: SEC; freshly isolated samples; Superdex 200 10/300 GL, 0.4 mL/min, 100 mM Tris-HCl pH 8.0, 150 mM NaCl; column calibrated with protein standards
[3] = molecular target: cold-active esterase PMGL3, wild type (not stated (Siberian permafrost metagenomic DNA library)); assay: crystal structure; X-ray, space group C2, two subunits in the asymmetric unit; crystals from 0.1 M sodium citrate pH 5.6, 20% isopropanol, 20% PEG 4000; oligomers from crystal contact analysis (PDBePISA)
[4] = molecular target: cold-active esterase PMGL3, wild type (not stated (Siberian permafrost metagenomic DNA library)); assay: SEC; freshly isolated samples; Superdex 200 10/300 GL, 0.4 mL/min, 100 mM Tris-HCl pH 8.0, 150 mM NaCl; column calibrated with protein standards; remark: listed apart in the source
[5] = molecular target: cold-active esterase PMGL3, wild type (not stated (Siberian permafrost metagenomic DNA library)); assay: crystal structure; X-ray, space group C2, two subunits in the asymmetric unit; crystals from 0.1 M sodium citrate pH 5.6, 20% isopropanol, 20% PEG 4000; oligomers from crystal contact analysis (PDBePISA); remark: listed apart in the source
[6] = molecular target: cold-active esterase PMGL3, wild type (not stated (Siberian permafrost metagenomic DNA library)); assay: SEC; samples after incubation for 30 min and/or 1 h at 40 °C; Superdex 200 10/300 GL, 0.4 mL/min, 100 mM Tris-HCl pH 8.0, 150 mM NaCl
[7] = molecular target: PMGL3 K67A mutant (not stated (Siberian permafrost metagenomic DNA library)); assay: SEC; freshly isolated samples; Superdex 200 10/300 GL, 0.4 mL/min, 100 mM Tris-HCl pH 8.0, 150 mM NaCl; column calibrated with protein standards
[8] = molecular target: PMGL3 K67A mutant (not stated (Siberian permafrost metagenomic DNA library)); assay: SEC; samples after incubation for 30 min and/or 1 h at 40 °C; Superdex 200 10/300 GL, 0.4 mL/min, 100 mM Tris-HCl pH 8.0, 150 mM NaCl
[9] = system: T1, CCCC(=O)Oc1ccc([N+](=O)[O-])cc1; assay: esterase activity, Michaelis-Menten nonlinear regression; type: biochemical, permafrost metagenome; details: 50 mM Tris-HCl pH 8.0, 100 mM NaCl, 30 °C, 0.2-2 mM substrate
T1 construct: recombinant in E. coli, pET32a (stated for mutants), C-terminal hexahistidine tag; 302 residues modelled plus last 10 C-terminal residues invisible; mainly dimer in solution, tetramer in crystal; catalytic motif 147GESAG151, E243, H273
Excerpt: (§1) esterase activity, Michaelis-Menten nonlinear regression on PMGL3

[10] = molecular target: T2, PMGL3 (unidentified, UniProt Z9N994FV33); assay: as above; type: biochemical, permafrost metagenome; details: 50 mM Tris-HCl pH 8.0, 100 mM NaCl, 30 °C; 0.2-2 mM substrate
T2 construct: recombinant in E. coli, pET32a (stated for mutants), C-terminal hexahistidine tag; 302 residues modelled plus last 10 C-terminal residues invisible; mainly dimer in solution, tetramer in crystal; catalytic motif 147GESAG151, E243, H273
T2 sequence (Z9N994FV33 1-304): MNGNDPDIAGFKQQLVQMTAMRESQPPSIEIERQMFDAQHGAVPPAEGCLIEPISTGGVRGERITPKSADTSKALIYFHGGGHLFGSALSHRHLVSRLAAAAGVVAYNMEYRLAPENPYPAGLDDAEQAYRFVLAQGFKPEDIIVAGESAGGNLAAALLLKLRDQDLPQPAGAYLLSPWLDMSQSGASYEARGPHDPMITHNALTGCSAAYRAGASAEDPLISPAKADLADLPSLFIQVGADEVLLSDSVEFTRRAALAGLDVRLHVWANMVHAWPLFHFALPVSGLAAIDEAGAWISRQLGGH
Excerpt: as §1

[11] = molecular target: PMGL3 E47Q mutant (not stated (Siberian permafrost metagenomic DNA library)); assay: SEC; freshly isolated samples; Superdex 200 10/300 GL, 0.4 mL/min, 100 mM Tris-HCl pH 8.0, 150 mM NaCl; column calibrated with protein standards
[12] = molecular target: PMGL3 E47Q mutant (not stated (Siberian permafrost metagenomic DNA library)); assay: SEC; samples after incubation for 30 min and/or 1 h at 40 °C; Superdex 200 10/300 GL, 0.4 mL/min, 100 mM Tris-HCl pH 8.0, 150 mM NaCl
[13] = molecular target: PMGL3 D7N mutant (not stated (Siberian permafrost metagenomic DNA library)); assay: SEC; freshly isolated samples; Superdex 200 10/300 GL, 0.4 mL/min, 100 mM Tris-HCl pH 8.0, 150 mM NaCl; column calibrated with protein standards
[14] = molecular target: PMGL3 D7N mutant (not stated (Siberian permafrost metagenomic DNA library)); assay: SEC; samples after incubation for 30 min and/or 1 h at 40 °C; Superdex 200 10/300 GL, 0.4 mL/min, 100 mM Tris-HCl pH 8.0, 150 mM NaCl

“cold-active esterase PMGL3, wild type (enzyme)” showed a stoichiometry N [1] of 4, a stoichiometry N [2] of 2 and a stoichiometry N [3] of 4. For the same molecule, the stoichiometry N [4] was 4, the stoichiometry N [5] was 2 and the stoichiometry N [6] was 4.

Molecule PMGL3 K67A mutant (enzyme) has a stoichiometry N [7] of 2 and a stoichiometry N [8] of 4.

Work on PMGL3 (unidentified; E47Q) yielded a Km [9] of 1.07 ± 0.09 mM, a Vmax [9] of 117 µmol/min/mg and a kcat [9] of 63.7 ± 2.07 s⁻¹.

`CCCC(=O)Oc1ccc([N+](=O)[O-])cc1` [p-nitrophenyl butyrate] was tested, and the Km [10] was 980 ± 90 µM.

For PMGL3 E47Q mutant (enzyme), the stoichiometry N [11] was 4 and 2 and the stoichiometry N [12] was 4.

In the case of PMGL3 D7N mutant (enzyme), the stoichiometry N [13] is reported as 2 and 4 and the stoichiometry N [14] is reported as 4.

With PMGL3 (unidentified; D7N) the Km [9] was 0.84 ± 0.07 mM, the Vmax [9] was 157 µmol/min/mg and the kcat [9] was 85 ± 3.15 s⁻¹.

PMGL3 (unidentified; K67A) was tested, and the Km [9] was 0.94 ± 0.06 mM, the Vmax [9] was 102 µmol/min/mg and the kcat [9] was 55.5 ± 1.4 s⁻¹.
